Assay results reported in patent US20200399353A1 (AGENCY FOR SCIENCE TECHNOLOGY AND RESEARCH, published 2020).

Legend:
[1] = molecular target: T1, cell surface Annexin A2 (ANXA2) on live cells (human, UniProt P07355 2-339, N-linked glycan (N-glycan-dependent epitope; its position is not shown by an experiment)); assay: flow cytometry on live IGROV1 cells
T1 construct: Endogenous ANXA2 on live human cancer cell lines (IGROV1, MCF7 and others) and hESC; also called annexin 2

[2] = molecular target: T1, cell surface Annexin A2 (ANXA2) on live …; assay: flow cytometry

T1 sequence (P07355 2-339 limits assumed): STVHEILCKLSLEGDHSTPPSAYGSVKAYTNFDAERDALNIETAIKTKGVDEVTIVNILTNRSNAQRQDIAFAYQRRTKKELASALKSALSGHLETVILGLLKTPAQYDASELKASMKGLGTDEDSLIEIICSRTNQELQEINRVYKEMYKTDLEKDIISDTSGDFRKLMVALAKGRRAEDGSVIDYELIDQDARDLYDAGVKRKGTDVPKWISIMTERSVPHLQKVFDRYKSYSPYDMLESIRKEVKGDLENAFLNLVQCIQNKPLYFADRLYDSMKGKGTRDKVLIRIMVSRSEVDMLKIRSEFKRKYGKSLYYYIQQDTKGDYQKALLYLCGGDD

Binder | binding result [1] | binding result [2]
mAb 2448 (antibody, V domains shown) VH: VQLQESGPDLVKPSRSLSLTCTVTGYSITSGYSWHWIRQFPGNKLEWMGYIHYSGSTKYNPSLKSRISITRDTSKNQFFLQLNSVTTEDAATYYCARGSNYGFDYWGQGTTLTVSS VL: DIELTQSPSSLAVSVGEKVTMSCKSSQSLLYSNDQKNYLAWYQQKPGQSPKLLIYWASIRESGVPDRFTGSGSGTDFTLTISSVKAEDLAVYYCQQYYIYPLTFGAGTKLEIKR | binds | 
Chimeric mAb ch2448 (antibody, V domains shown, also called wildtype chimeric mAb ch2448) VH: VQLQESGPDLVKPSRSLSLTCTVTGYSITSGYSWHWIRQFPGNKLEWMGYIHYSGSTKYNPSLKSRISITRDTSKNQFFLQLNSVTTEDAATYYCARGSNYGFDYWGQGTTLTVSS VL: DIELTQSPSSLAVSVGEKVTMSCKSSQSLLYSNDQKNYLAWYQQKPGQSPKLLIYWASIRESGVPDRFTGSGSGTDFTLTISSVKAEDLAVYYCQQYYIYPLTFGAGTKLEIKR |  | binds
Afucosylated ch2448 (antibody, V domains shown, also called aF-ch2448) VH: VQLQESGPDLVKPSRSLSLTCTVTGYSITSGYSWHWIRQFPGNKLEWMGYIHYSGSTKYNPSLKSRISITRDTSKNQFFLQLNSVTTEDAATYYCARGSNYGFDYWGQGTTLTVSS VL: DIELTQSPSSLAVSVGEKVTMSCKSSQSLLYSNDQKNYLAWYQQKPGQSPKLLIYWASIRESGVPDRFTGSGSGTDFTLTISSVKAEDLAVYYCQQYYIYPLTFGAGTKLEIKR |  | binds
